Experimental data: the supplement of paper PMC7125110
± gives the standard error. This sample holds only a part of the variants without activity.

B1: glmS ribozyme (parent)
chain: AUAAAAGCGCCAGAACUACAGAAAUGUAGUUGACGAGGAGGAGGUUUAUCGAAUUUUCGGCGGAUGCCUCCAAA

Experiments:
Conditions in all cases: with glucosamine-6-phosphate
[1] = variants of: B1; experiment: self-cleavage kobs at 40 uM GlcN6P; higher = faster cleavage; RNA array
Outline: (§1)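 Using a hybridised Cy3 probe at 37 °C, barcoded ribozyme variants transcribed in situ by E. coli RNA polymerase on sequenced MiSeq chips were monitored across tiles imaged over ~14 h. The flow contained glucosamine-6-phosphate from 40 μM to 10 mM in HEPES/KCl/Mg(OAc)2 buffer. Signals were normalised to baseline and to non-cleaving reference variants before per-tile medians were fit to one- or two-exponential decays to yield kobs. Weighted Michaelis–Menten fits across concentrations gave kcat and KM.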

[2] = variants of: B1; experiment: self-cleavage kobs at 160 uM GlcN6P; higher = faster cleavage; RNA array
Outline: as §1

[3] = variants of: B1; experiment: self-cleavage kobs at 640 uM GlcN6P; higher = faster cleavage; RNA array
Outline: as §1

[4] = variants of: B1; experiment: self-cleavage kobs at 10000 uM GlcN6P; higher = faster cleavage; RNA array
Outline: as §1

[5] = variants of: B1; experiment: self-cleavage kobs at 2500 uM GlcN6P; higher = faster cleavage; RNA array
Outline: as §1

Variant | self-cleavage kobs at 40 uM GlcN6P [1] [s⁻¹] | self-cleavage kobs at 160 uM GlcN6P [2] [s⁻¹] | self-cleavage kobs at 640 uM GlcN6P [3] [s⁻¹] | self-cleavage kobs at 10000 uM GlcN6P [4] [s⁻¹] | self-cleavage kobs at 2500 uM GlcN6P [5] [s⁻¹]
G7U G60U | < 1e-05 | < 1e-05 | < 1e-05 | < 1e-05 | –
C8A G66U | < 1e-05 | < 1e-05 | – | – | < 1e-05
C8G C34A A53C G60C | < 1e-05 | < 1e-05 | < 1e-05 | – | < 1e-05
C8A A42U G62U | < 1e-05 | – | – | – | < 1e-05
C8G G37U G41C U56A | < 1e-05 | – | – | – | < 1e-05
C8A U49A | < 1e-05 | – | < 1e-05 | – | –
G9A G29C | < 1e-05 | < 1e-05 | < 1e-05 | < 1e-05 | –
G9A G44A C67A | < 1e-05 | – | – | – | –
C8A C68G | 0.000368 ± 0.00014 | – | – | – | –
C8A C10G | < 1e-05 | < 1e-05 | < 1e-05 | < 1e-05 | < 1e-05
G9A C16G G63A A64G | < 1e-05 | < 1e-05 | < 1e-05 | – | < 1e-05
C8G A15C | < 1e-05 | < 1e-05 | < 1e-05 | < 1e-05 | < 1e-05
C8U C11U U57G C67G | 0.000617 ± 0.0003 | – | 7.99e-05 ± 3.8e-05 | 0.000608 ± 0.00023 | –
C8A C11G G38U G60A | < 1e-05 | < 1e-05 | < 1e-05 | – | –
C8A G60U | < 1e-05 | < 1e-05 | < 1e-05 | – | < 1e-05
C8U G9A C16U C50U A52U | < 1e-05 | – | – | < 1e-05 | < 1e-05
G9A A14G | < 1e-05 | < 1e-05 | – | 5.01e-05 ± 1.3e-05 | –
C8A A64U | < 1e-05 | < 1e-05 | < 1e-05 | < 1e-05 | < 1e-05
C8G A64G | < 1e-05 | < 1e-05 | – | < 1e-05 | < 1e-05
C8G A64C | < 1e-05 | < 1e-05 | – | < 1e-05 | < 1e-05
